Consider one substance from patent US20200024330A1.

A value given as a limit tells only on which side of the number the result lay.

Holding throughout (assay): cell-based or functional assay
Assay [1] has as its target HIV-1 93UG077 envelope glycoprotein (Env) on pseudovirus (HIV-1).
For assay [2], the target named is HIV-1 92UG005 envelope protein (Env) on pseudovirus (HIV-1).
The target of assay [3] is HIV-1 IAVI-C3 envelope protein (Env) on pseudovirus (HIV-1).
Assay [4] deals with HIV-1 MGRM-A-007 envelope glycoprotein (Env) (HIV-1).
In assay [5] the target is HIV-1 Env of isolate MGRM-G-013 (clade G pseudovirus) (HIV-1).
Assay [6] has as its target HIV-1 Env of pseudovirus THR0.18 (Acute), clade B (HIV-1).
For assay [7], the target named is HIV-1 MGRM-A-009 envelope glycoprotein (Env) (HIV-1).
Assay [8] deals with HIV-1 Env of pseudovirus 93TH305, clade B (HIV-1).
Assay [9] deals with HIV-1 CMU02 envelope glycoprotein (Env) on pseudovirus (HIV-1).
The target in assay [10] is HIV-1 Env of isolate MGRM-AE-002 (HIV-1).
The target in assay [11] is HIV-1 Env of pseudovirus CAAN.A2 (Acute), clade B (HIV-1).
Assay [12] addresses HIV-1 Env of isolate MGRM-G-011 (clade G pseudovirus) (HIV-1).
Assay [13] addresses HIV-1 94UG103 envelope glycoprotein (Env) on pseudovirus (HIV-1).
Assay [14] addresses HIV-1 Env of pseudovirus MGRM-Chronic-B-003, clade B (HIV-1).
Assay [15] concerns the target HIV-1 MGRM-C-022 Env (HIV-1).
Assay [16] addresses HIV-1 Env of isolate MGRM-D-003 (clade D) (HIV-1).
In assay [17] the target is HIV-1 APV-13 envelope protein (Env) on pseudovirus (HIV-1).

As a reminder, the IC50 is the concentration at which inhibition is half-maximal. For b12 (antibody), the results for the IC90 (pseudovirus neutralization) in assay [1], in assay [9] and in assay [13] were greater than 50 µg/mL, 34.2 µg/mL and 47.3 µg/mL, respectively. In addition, the neutralization IC50 in assay [2] was greater than 50 µg/mL; in assay [3] it was 5 µg/mL; in assay [17] it was greater than 25 µg/mL. The IC50 (µg/ml), pseudovirus neutralization in assay [4] was greater than 50 µg/mL; in assay [5] it was greater than 50 µg/mL; in assay [6], 3.62 µg/mL; in assay [7], 4.34 µg/mL; in assay [8], 4.17 µg/mL; in [10] it was 17.1 µg/mL. Also, the IC50 (µg/ml), pseudovirus neutralization in [11], in assay [12], in assay [14] and in assay [16] was greater than 50 µg/mL each time. Also, in assay [15], the IC50 is greater than 50 µg/mL.
